Laboratory results reported in paper doi:10.1101/266833 (bioRxiv, 2018).

Target: T1, yUpf1-HD (220-851) (S. cerevisiae, UniProt P30771 220-851)
T1 sequence (looked up): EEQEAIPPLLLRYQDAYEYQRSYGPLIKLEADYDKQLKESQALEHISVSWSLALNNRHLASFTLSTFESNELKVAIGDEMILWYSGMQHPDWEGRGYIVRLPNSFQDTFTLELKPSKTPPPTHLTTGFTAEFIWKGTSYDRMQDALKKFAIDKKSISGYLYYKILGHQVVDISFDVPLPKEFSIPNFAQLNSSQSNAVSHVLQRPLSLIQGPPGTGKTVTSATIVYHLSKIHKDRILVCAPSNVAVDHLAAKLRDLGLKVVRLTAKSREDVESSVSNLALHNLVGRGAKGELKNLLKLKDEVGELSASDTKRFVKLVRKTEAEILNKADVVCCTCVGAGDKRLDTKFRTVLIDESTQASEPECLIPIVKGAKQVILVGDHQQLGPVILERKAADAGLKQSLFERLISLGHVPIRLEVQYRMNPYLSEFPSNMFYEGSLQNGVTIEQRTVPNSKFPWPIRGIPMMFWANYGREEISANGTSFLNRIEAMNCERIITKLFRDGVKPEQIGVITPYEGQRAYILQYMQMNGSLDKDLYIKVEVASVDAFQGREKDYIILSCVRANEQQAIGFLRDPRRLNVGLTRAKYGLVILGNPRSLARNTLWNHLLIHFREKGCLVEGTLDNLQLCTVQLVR
Assay: pull-down

- binding result: binds
B1: CBP-Nmd4 (natural protein, S. cerevisiae, UniProt Q12129 1-218, looked up)
chain: MTQYNFIIDASAFEKGLGNIKRWCSDCTEAVTLNFYIPTFTLNELDFLQQRRKSFAARESLKFIDRLDDSKFANLKVFIEFPEVLDIILWSDVMEHNDSSGKINIAKLPKRLKNLLKSCIYKCYLEGNEGLHWFLISEDPQIREMAMQCNIPSCSIVDVDSILSKDMNDKSFRESEKFNNMMLKNGTKEESENGREIIRTNFNKTVYASRGTGELWSP
